The source of these data is US20260115250A1, “METHODS OF TREATING AGE-RELATED MACULAR DEGENERATION” (Character Biosciences, Inc., priority 2022, published 2026).

One experiment deals with ARPE-19 cells. Nature of the experiment: ARPE-19 GAG-dependent cholesterol import (with or without heparin). The settings on record: ARPE-19, 10 μM peptide. In kind it is cell-based, human. The protocol:
ARPE-19 cells were seeded on 96-well plates at 25,000 cells per well and grown to confluence. A 2× solution of 500 μM DMPC and 50 μM BODIPY-Cholesterol with or without 100 µg/mL heparin was prepared in serum free DMEM: F12. Peptides were diluted to 20 μM in serum free DMEM: F12 (a 2× solution). Peptides were added to lipid solution in equal parts (60 μL each) and incubated for 1 hour at 37° C. ARPE-19 cells were serum starved in serum free DMEM: F12 for 1 hour at 37° C. Peptide: Lipid complexes (100 μL total volume per well) were transferred to ARPE-19 cells for 2 hours at 37° C. Cells were washed, fixed, and intracellular fluorescence was read on Promega GloMax at 475 nm excitation, 500-550 emission. Fluorescence values were background corrected from no treatment conditions. Data are presented ±SD for 2 runs.

The nature of experiment [1]: peptide binding to non-oxidized and oxidized lipids (SPR). The settings on record: immobilized peptide; RU normalized to DMPC. The protocol: FIGS. 25A-25O show peptide binding activity to non-oxidized and oxidized lipids via SPR for indicated peptides. Peptides were reconstituted to 50 μg/mL in 10 mM acetate buffer, pH 4.5 and immobilized to ˜200 RU on a CM5 chip via amine coupling. Non-oxidized lipids (DMPC & POPC) and oxidized lipids (POVPC & KOdiA-PC) were diluted to 100 µM in HBS-EP running buffer and exposed to the chip for binding (n=3) at a flow rate of […] for 120 seconds. The surface was regenerated with 20% EtOH. T-001 served as a positive control and T-031 served as a negative control on each chip. For each peptide, the RU response for all lipids was normalized to the DMPC RU values.

Experiment [2] in a line: DMPC solubility assay, 0.5 mM DMPC (turbidity reduction). The note with it: FIGS. 2A-2D and 3A-3C. In kind it is biochemical. The protocol: In this example, peptide stocks were diluted to 200 μM in H2O (a 2× solution) and 50 μL of peptide solution was transferred in triplicate into 96-well plates. A one mM solution of 1,2-dimyristoyl-sn-glycero-3-phosphocholine (DMPC) in H2O was prepared, and using a multichannel pipet, 50 μL DMPC solution was rapidly added to the plate. Peptide and lipid solutions were incubated at room temperature for 15 minutes with a final concentration of 100 μM peptides and 0.5 mM DMPC. After 15 minutes, absorbance was read on a plate reader at 405 nm. […] Data are presented as mean+SD over two runs.
In these experiments, DMPC solubility titration curves were generated. Peptide stocks were diluted to 200 μM in H2O (a 2× solution) and serially diluted in H2O over 4 concentrations, then 50 μL of peptide solutions were distributed in triplicate into 96-well plates. A 1 mM solution of 1,2-dimyristoyl-sn-glycero-3-phosphocholine (DMPC) in H2O was prepared, and using a multichannel pipet, 50 μL DMPC solution was rapidly added to the plate. Peptide and lipid solutions were incubated at room temperature for 15 minutes with final concentrations of 3.16-100 μM peptides and 0.5 mM DMPC. After 15 minutes, absorbance was read on a plate reader at 405 nm. […] Data are presented as mean+SD over two runs. Non-linear regression was used to calculate EC50 values.

A further experiment concerns the target LDLR (Homo sapiens, UniProt P01130). Put plainly: lipid-dependent LDLR binding (SPR), single concentration. The settings on record: 1 μM peptide with or without 25 μM DMPC. Here is the method:
Peptides were diluted in 1×HBS-N buffer with 1 mM CaCl2 to a final concentration of 1 μM and incubated with or without 25 μM DMPC for 1 hour at RT to form lipid complexes. Each peptide was tested in duplicate. LDLR was diluted to 10 μg/mL in 10 mM acetate buffer pH 4.5 and was immobilized (˜400RU) on a CM5 chip via amine coupling utilizing 1×HBS-P+ buffer with 1 mM CaCl2. Test peptides (with or without DMPC) were exposed to immobilized LDLR at a flow rate of […] for 120 seconds in HBS-N with 1 mM CaCl2. Between cycles the surface was regenerated with 3, 30 second injections of 10 mM NaOH and 100 mM EDTA. Data are plotted as max RU values, averaged from three separate runs.

LDLR, sequence (P01130 22-860): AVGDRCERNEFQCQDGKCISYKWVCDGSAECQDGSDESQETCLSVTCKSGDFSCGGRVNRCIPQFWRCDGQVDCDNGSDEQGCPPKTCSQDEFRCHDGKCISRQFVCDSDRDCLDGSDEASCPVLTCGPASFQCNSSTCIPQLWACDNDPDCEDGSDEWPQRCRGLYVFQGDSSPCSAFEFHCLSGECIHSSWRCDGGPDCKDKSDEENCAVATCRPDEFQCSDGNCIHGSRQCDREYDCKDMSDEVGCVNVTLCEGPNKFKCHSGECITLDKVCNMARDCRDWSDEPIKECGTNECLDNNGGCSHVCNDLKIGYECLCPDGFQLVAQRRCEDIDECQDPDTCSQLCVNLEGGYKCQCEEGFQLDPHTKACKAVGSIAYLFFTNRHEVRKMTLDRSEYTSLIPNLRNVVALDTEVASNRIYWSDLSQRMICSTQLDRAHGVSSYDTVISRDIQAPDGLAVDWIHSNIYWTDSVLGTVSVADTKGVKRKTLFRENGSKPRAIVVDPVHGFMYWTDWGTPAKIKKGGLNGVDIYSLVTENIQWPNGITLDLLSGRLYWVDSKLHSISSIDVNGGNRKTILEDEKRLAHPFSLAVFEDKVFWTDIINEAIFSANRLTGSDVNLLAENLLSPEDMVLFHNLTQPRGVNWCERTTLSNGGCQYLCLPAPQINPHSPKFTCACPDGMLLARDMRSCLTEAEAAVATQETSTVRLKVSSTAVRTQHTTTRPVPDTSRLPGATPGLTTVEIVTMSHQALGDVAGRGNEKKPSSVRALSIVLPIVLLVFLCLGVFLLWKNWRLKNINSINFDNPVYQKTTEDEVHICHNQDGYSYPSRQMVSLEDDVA

B1: T-013: therapeutic peptide (peptide)
chain: TRARLSKELQAAQARLGADMEDVRGRLVQYRGEVQAMLGQSTEELRVRLASHLRKLRKRLLRDADDLQKRLAVYQA
For the molecule B1, the “GAG dependence of cholesterol import” value with ARPE-19 cells is given as “rely on GAG binding for cholesterol import activity”. The “binding to oxidized lipids relative to DMPC” value in experiment [1] is “binding to at least one oxidized lipid that was equivalent or improved to binding against DMPC”. Also, the DMPC solubilizing activity entry in experiment [2] is listed as “significant activity”. Also, in the experiment with LDLR, the “lipid-dependent LDLR binding (RU with lipid vs peptide alone)” value is “lipid-dependent LDLR binding activity”.
